{"source": "paper PMC11903869", "about": "“Structure and function of the geldanamycin amide synthase from Streptomyces hygroscopicus” (Nature Communications, 2025)", "key": {"GdmF [1]": {"target": "T1, GdmF (Streptomyces hygroscopicus, UniProt Q84G21)", "T1 construct": "full-length GdmF, N-terminal histidine hexamer", "assay": "microscale thermophoresis", "assay_type": "binding"}, "GdmF [2]": {"target": "T1, GdmF", "assay": "X-ray crystal structure (cleaved group from pantetheine thioesters)", "assay_type": "binding"}, "GdmF [3]": {"target": "T1, GdmF", "assay": "X-ray crystal structure (cleaved group from SNAC thioesters)", "assay_type": "binding"}, "[4]": {"substrate": "C/C=C(\\C)C(=O)SCCNC(C)=O", "assay": "purified protein, by the assay type", "set-up": "Steady-state amide formation, thiol release from thioesters monitored with DTNB at 405 nm, 22 °C; kcat: unit: s^-1", "conditions": "pH 7.5; 22.0 °C", "description": "(§1) The enzymatic activity of ShGdmF was measured by monitoring the release of free thiols with 5,5’-dithio-bis(2-nitrobenzoic acid) (DTNB) at 405 nm in 100 mM sodium phosphate buffer, pH 7.5. 2 µM ShGdmF was pre-incubated with 2 mM aminophenol 32 or 33 and 100 µM DTNB at 22 °C for 5 min in a 96-well plate before increasing concentrations of thioester 11a-c or 13a-c were added to each well. Measurements were performed using a Multiskan FC Microplate Photometer (Thermo Fisher Scientific) at 22 °C. Each measurement was performed in triplicate. […] The enzyme is able to catalyze the amide synthesis of SNAC and pantetheine thioesters directly in vitro and in the absence of the cellular environment (Fig. 6e + 6f). The kinetic parameters KM of GdmF for substrate conversion range from submillimolar to millimolar at maximum rates (kcat) of 0.001 to 0.02 s^−1. […] For the SNAC thioesters, an increase in kcat/KM with increasing chain length was observed, whereas in the case of the pantetheine thioesters, a decrease in catalytic efficiency with longer acyl substrates was observed. In terms of kcat values, the activity of GdmF is similar to that of the related MsNAT."}, "[5]": {"substrate": "C/C=C/C(=O)SCCNC(C)=O", "assay": "purified protein, by the assay type", "set-up": "Steady-state amide formation, thiol release from thioesters monitored with DTNB at 405 nm, 22 °C; kcat: unit: s^-1", "conditions": "pH 7.5; 22.0 °C", "description": "as §1"}, "[6]": {"substrate": "CC(=O)SCCNC(=O)CCNC(=O)[C@H](O)C(C)(C)CO", "assay": "purified protein, by the assay type", "set-up": "Steady-state amide formation, thiol release from thioesters monitored with DTNB at 405 nm, 22 °C; kcat: unit: s^-1", "conditions": "pH 7.5; 22.0 °C", "description": "as §1"}, "[7]": {"substrate": "CC/C=C/C(=O)SCCNC(=O)CCNC(=O)[C@H](O)C(C)(C)CO", "assay": "purified protein, by the assay type", "set-up": "Steady-state amide formation, thiol release from thioesters monitored with DTNB at 405 nm, 22 °C; kcat: unit: s^-1", "conditions": "pH 7.5; 22.0 °C", "description": "as §1"}, "[8]": {"substrate": "C/C=C(\\C)C(=O)SCCNC(C)=O", "assay": "purified protein, by the assay type", "set-up": "Steady-state amide formation, thiol release from thioesters monitored with DTNB at 405 nm, 22 °C; kcat: unit: s^-1", "conditions": "pH 7.5; 22.0 °C", "description": "as §1", "remark": "listed apart in the source"}, "[9]": {"substrate": "C/C=C/C(=O)SCCNC(C)=O", "assay": "purified protein, by the assay type", "set-up": "Steady-state amide formation, thiol release from thioesters monitored with DTNB at 405 nm, 22 °C; kcat: unit: s^-1", "conditions": "pH 7.5; 22.0 °C", "description": "as §1", "remark": "listed apart in the source"}, "[10]": {"substrate": "CC(=O)SCCNC(=O)CCNC(=O)[C@H](O)C(C)(C)CO", "assay": "purified protein, by the assay type", "set-up": "Steady-state amide formation, thiol release from thioesters monitored with DTNB at 405 nm, 22 °C; kcat: unit: s^-1", "conditions": "pH 7.5; 22.0 °C", "description": "as §1", "remark": "listed apart in the source"}, "[11]": {"substrate": "CC/C=C/C(=O)SCCNC(=O)CCNC(=O)[C@H](O)C(C)(C)CO", "assay": "purified protein, by the assay type", "set-up": "Steady-state amide formation, thiol release from thioesters monitored with DTNB at 405 nm, 22 °C; kcat: unit: s^-1", "conditions": "pH 7.5; 22.0 °C", "description": "as §1", "remark": "listed apart in the source"}}}
{"molecule": "C/C=C(\\C)C(=O)SCCNC(C)=O", "note": "[11b, SNAC ester 11b]", "values": [{"measurement": "Kd", "setting": "GdmF [1]", "value": 1.16, "unit": "mM"}]}
{"molecule": "CC(C)(CO)[C@@H](O)C(=O)NCCC(=O)NCCS", "note": "[pantetheine]", "values": [{"measurement": "X-ray crystal structure (cleaved group from pantetheine thioesters)", "setting": "GdmF [2]", "value": "Crystal structure of GdmF with bound pantetheine, and (b) N-acetylcysteamine (SNAC) in the active site cleft"}]}
{"molecule": "CC(=O)NCCS", "note": "[N-acetylcysteamine]", "values": [{"measurement": "X-ray crystal structure (cleaved group from SNAC thioesters)", "setting": "GdmF [3]", "value": "we found densities for the cleaved SNAC or pantetheine groups, instead"}]}
{"molecule": "CC(=O)SCCNC(=O)CCNC(=O)[C@H](O)C(C)(C)COP(=O)(O)OP(=O)(O)OC[C@H]1O[C@@H](n2cnc3c(N)ncnc32)[C@H](O)[C@@H]1OP(=O)(O)O", "note": "[compound 5, acetyl-CoA]", "values": [{"measurement": "Kd", "setting": "GdmF [1]", "value": 2.96, "unit": "mM"}]}
{"molecule": "GdmF (Streptomyces hygroscopicus) (protein, full-length GdmF, N-terminal histidine hexamer) MFDVAKYLRRIGVEGTPPPTLDTLRHLHKRHLMAVPYDNSTAPDRLPASRHLTNVPLDLVFGHVVTEGHGGVCYELNRLFHTLLAELGYDVRMVAAAVRQANGTFGPEREHTFDLVHLDGRTHLVDVGFPGPSYSEPLYLSEEEQHQYGCSYRVTEHDGYRVVERRPKGSDWQPVYRFRPELADPSGWDAVRLDSLDDYAQDSVLAGTTFRSRATDNGKIVLIGRRYFTVEDGVERTKVLVKADEFQDVVDLILAGA", "values": [{"measurement": "Km", "setting": "[4]", "value": "2.735 ± 0.6103", "unit": "mM"}, {"measurement": "kcat", "setting": "[4]", "value": "0.0071 ± 0.0007", "unit": "s⁻¹"}, {"measurement": "kcat/Km", "setting": "[4]", "value": 2.6, "unit": "M⁻¹ s⁻¹"}, {"measurement": "Km", "setting": "[5]", "value": "0.8581 ± 0.2327", "unit": "mM"}, {"measurement": "kcat", "setting": "[5]", "value": "0.0016 ± 0.00019", "unit": "s⁻¹"}, {"measurement": "kcat/Km", "setting": "[5]", "value": 1.87, "unit": "M⁻¹ s⁻¹"}, {"measurement": "Km", "setting": "[6]", "value": "6.4136 ± 2.0704", "unit": "mM"}, {"measurement": "kcat", "setting": "[6]", "value": "0.0164 ± 0.0039", "unit": "s⁻¹"}, {"measurement": "kcat/Km", "setting": "[6]", "value": 2.56, "unit": "M⁻¹ s⁻¹"}, {"measurement": "Km", "setting": "[7]", "value": "1.1368 ± 0.1369", "unit": "mM"}, {"measurement": "kcat", "setting": "[7]", "value": "0.0027 ± 0.00013", "unit": "s⁻¹"}, {"measurement": "kcat/Km", "setting": "[7]", "value": 2.37, "unit": "M⁻¹ s⁻¹"}, {"measurement": "Km", "setting": "[8]", "value": "6.9024 ± 4.1426", "unit": "mM"}, {"measurement": "kcat", "setting": "[8]", "value": "0.012 ± 0.0058", "unit": "s⁻¹"}, {"measurement": "kcat/Km", "setting": "[8]", "value": 1.74, "unit": "M⁻¹ s⁻¹"}, {"measurement": "Km", "setting": "[9]", "value": "1.8651 ± 0.2537", "unit": "mM"}, {"measurement": "kcat", "setting": "[9]", "value": "0.0032 ± 0.00026", "unit": "s⁻¹"}, {"measurement": "kcat/Km", "setting": "[9]", "value": 1.72, "unit": "M⁻¹ s⁻¹"}, {"measurement": "Km", "setting": "[10]", "value": "3.6483 ± 2.8127", "unit": "mM"}, {"measurement": "kcat", "setting": "[10]", "value": "0.0075 ± 0.0051", "unit": "s⁻¹"}, {"measurement": "kcat/Km", "setting": "[10]", "value": 2.06, "unit": "M⁻¹ s⁻¹"}, {"measurement": "Km", "setting": "[11]", "value": "8.2677 ± 1.6107", "unit": "mM"}, {"measurement": "kcat", "setting": "[11]", "value": "0.0084 ± 0.0013", "unit": "s⁻¹"}, {"measurement": "kcat/Km", "setting": "[11]", "value": 1.02, "unit": "M⁻¹ s⁻¹"}]}
